Data from the supplement of paper PMC7125110.
± gives the standard error. Variants at the floor of the assay were thinned out.

B1: glmS ribozyme (parent)
chain: AUAAAAGCGCCAGAACUACAGAAAUGUAGUUGACGAGGAGGAGGUUUAUCGAAUUUUCGGCGGAUGCCUCCAAA

Experiments:
Settings in all cases: with glucosamine-6-phosphate
[1] = variants of: B1; assay: self-cleavage kobs at 40 uM GlcN6P; higher = faster cleavage; RNA array
Summary of the method: (§1)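 Glucosamine-6-phosphate (40 μM to 10 mM) in HEPES/KCl/Mg(OAc)2 buffer was flowed over sequenced MiSeq chips, and tiles were imaged over ~14 h. Barcoded ribozyme variants there had been transcribed in situ by E. coli RNA polymerase and were tracked through a hybridised Cy3 probe at 37 °C. One- or two-exponential decay fits to per-tile medians, normalised to baseline and to non-cleaving reference variants, gave kobs. kcat and KM came from weighted Michaelis–Menten fits across concentrations.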

[2] = variants of: B1; assay: self-cleavage kobs at 10000 uM GlcN6P; higher = faster cleavage; RNA array
Summary of the method: as §1

[3] = variants of: B1; assay: self-cleavage kobs at 160 uM GlcN6P; higher = faster cleavage; RNA array
Summary of the method: as §1

[4] = variants of: B1; assay: self-cleavage kobs at 640 uM GlcN6P; higher = faster cleavage; RNA array
Summary of the method: as §1

[5] = variants of: B1; assay: self-cleavage kobs at 2500 uM GlcN6P; higher = faster cleavage; RNA array
Summary of the method: as §1

Variant	self-cleavage kobs at 40 uM GlcN6P [1] [s⁻¹]	self-cleavage kobs at 10000 uM GlcN6P [2] [s⁻¹]	self-cleavage kobs at 160 uM GlcN6P [3] [s⁻¹]	self-cleavage kobs at 640 uM GlcN6P [4] [s⁻¹]	self-cleavage kobs at 2500 uM GlcN6P [5] [s⁻¹]
C8U G9U U30G A64C	< 1e-05	< 1e-05			
C8U U45C	< 1e-05		< 1e-05	< 1e-05	< 1e-05
C8G U31C A36U U57A	< 1e-05				< 1e-05
G7U A64C	< 1e-05	< 1e-05		< 1e-05	
C8U A14U G44U	< 1e-05				
C8G U56C G62C	< 1e-05	< 1e-05		< 1e-05	< 1e-05
C8A C16G	< 1e-05	< 1e-05	< 1e-05	< 1e-05	< 1e-05
G9A A52U U65G	< 1e-05				
C8A U49G	< 1e-05	< 1e-05	< 1e-05	< 1e-05	< 1e-05
C8G G29U G66U	< 1e-05				
C8U G29A G60U	< 1e-05	< 1e-05		< 1e-05	
C8U A48G C70U	< 1e-05	< 1e-05		< 1e-05	
C8G U65G C68A	< 1e-05				< 1e-05
C8A A33U G40A A64G C68A	< 1e-05	< 1e-05		< 1e-05	< 1e-05
G9A G13U A15G G37C A39C A53U C67G C68A	0.000469 ± 0.00015	0.000282 ± 7.8e-05		0.000121 ± 4.4e-05	
G7C G60U	< 1e-05	< 1e-05	< 1e-05		< 1e-05
C8A C16U U45C G62U C70A	< 1e-05				
C8U C10A G40C C67A	< 1e-05				
G7C U45G	< 1e-05	< 1e-05	< 1e-05	< 1e-05	< 1e-05
G9A A53U	< 1e-05		< 1e-05	< 1e-05	
G7U G43U C50U G51C	< 1e-05	< 1e-05			
C8A U30A	< 1e-05	< 1e-05	< 1e-05		< 1e-05
G7U G51C	< 1e-05			< 1e-05	< 1e-05
C8U C68U C70U	< 1e-05	< 1e-05			
G9A G29C G32C U45C A53C	< 1e-05				

Variant	self-cleavage kobs at 40 uM GlcN6P [1] [s⁻¹]	self-cleavage kobs at 10000 uM GlcN6P [2] [s⁻¹]	self-cleavage kobs at 160 uM GlcN6P [3] [s⁻¹]	self-cleavage kobs at 640 uM GlcN6P [4] [s⁻¹]	self-cleavage kobs at 2500 uM GlcN6P [5] [s⁻¹]
C8U A33C G44A C50G	< 1e-05			< 1e-05	< 1e-05
C8U G29A G40U U45A	< 1e-05	< 1e-05			
C8U G38C G44U A48C	< 1e-05				
G9A C16U A42G C50G	0.000108 ± 4.9e-05				
G9A A39U G44A U55C	< 1e-05	< 1e-05			
C8U A48G	< 1e-05	< 1e-05	< 1e-05		< 1e-05
G7U G32A	< 1e-05	< 1e-05	< 1e-05	< 1e-05	< 1e-05
G7U G32C	< 1e-05	< 1e-05		< 1e-05	< 1e-05
C8G A14G U31C	< 1e-05				
G9A C50G	0.000112 ± 1.8e-05	9.95e-05 ± 1.1e-05	0.000137 ± 3.9e-05	0.00113 ± 0.00048	
C8G U47G C68A	< 1e-05				< 1e-05
C8G A14C	< 1e-05	< 1e-05	< 1e-05	< 1e-05	< 1e-05
G7U C11G A12C A42U	< 1e-05				< 1e-05
G7U G29A U30C C34U U45A	< 1e-05				
C8G C68G	< 1e-05	< 1e-05	< 1e-05		
C8G C68U	< 1e-05				
C8G C34A	< 1e-05	< 1e-05	< 1e-05		< 1e-05
C8U C34U	< 1e-05	< 1e-05		< 1e-05	
G9A G13C	< 1e-05		< 1e-05	< 1e-05	< 1e-05
C8U G38U	< 1e-05		< 1e-05		< 1e-05
C8U G40C	< 1e-05	< 1e-05		< 1e-05	
C8U A36C G41C	< 1e-05				
C8G U31C A33U U46C C67A	< 1e-05	< 1e-05			
G7U G9C A42G A52U	< 1e-05			< 1e-05	
C8A A33U C34A U56A	< 1e-05				

Variant	self-cleavage kobs at 40 uM GlcN6P [1] [s⁻¹]	self-cleavage kobs at 10000 uM GlcN6P [2] [s⁻¹]	self-cleavage kobs at 160 uM GlcN6P [3] [s⁻¹]	self-cleavage kobs at 640 uM GlcN6P [4] [s⁻¹]	self-cleavage kobs at 2500 uM GlcN6P [5] [s⁻¹]
G9A C58U	< 1e-05	< 1e-05	< 1e-05	< 1e-05	< 1e-05
C8U C16G C50G	0.000158 ± 3.8e-05	8.29e-05 ± 1.9e-05			
C8U C11U U45C G63C	< 1e-05				
C8U G13U A39C	< 1e-05				
C8G G29U C71G	< 1e-05				
G7U U57G C61A C68U C70U	5.84e-05 ± 2.5e-05				
C8U A42U G44A U56C	< 1e-05				
G9A C11G A52C C68U	< 1e-05	< 1e-05			
G7U G13A A15U U31G U49G C67A	< 1e-05				
C8A A15U G38A G41C A53G	< 1e-05				
G9A A14C	< 1e-05		< 1e-05		< 1e-05
C8G U55A C61A	< 1e-05				
C8A C34G A52U C67U	< 1e-05	< 1e-05			
C8U U57C	< 1e-05	< 1e-05	< 1e-05	< 1e-05	< 1e-05
C8G U65A	< 1e-05				
C8G A48C	< 1e-05		< 1e-05		< 1e-05
G7U G40A	< 1e-05				
G7C G32A	< 1e-05	< 1e-05	< 1e-05		
G7U C8G G32C U56G C61A	< 1e-05				< 1e-05
C8A G44U	< 1e-05	< 1e-05	< 1e-05	< 1e-05	
C8A C50G A53U C67U	0.000239 ± 5.6e-05	0.000304 ± 5e-05		0.000168 ± 5.7e-05	0.000626 ± 0.00028
G7U A12C C50G C61A	0.000187 ± 7.2e-05	0.000332 ± 0.00012			
G7U A52C C70U	< 1e-05	< 1e-05		< 1e-05	< 1e-05
G7U A52G	< 1e-05		< 1e-05		
G7U C11A C61G	< 1e-05				

Variant	self-cleavage kobs at 40 uM GlcN6P [1] [s⁻¹]	self-cleavage kobs at 10000 uM GlcN6P [2] [s⁻¹]	self-cleavage kobs at 160 uM GlcN6P [3] [s⁻¹]	self-cleavage kobs at 640 uM GlcN6P [4] [s⁻¹]	self-cleavage kobs at 2500 uM GlcN6P [5] [s⁻¹]
G7U U30G C61G G62U	< 1e-05				
G9A A39G	< 1e-05		< 1e-05		
G9A C50G C70G	9.06e-05 ± 2.7e-05	4.63e-05 ± 1.4e-05			
C8G U45A	< 1e-05	< 1e-05	< 1e-05	< 1e-05	
C8U U31G	< 1e-05	< 1e-05	< 1e-05	< 1e-05	< 1e-05
C8G A14G A33G	< 1e-05	< 1e-05			< 1e-05
C8U A15C	< 1e-05		< 1e-05	< 1e-05	
C8U A15G	< 1e-05	< 1e-05	< 1e-05	< 1e-05	
C8G U31A U57A	< 1e-05	< 1e-05			< 1e-05
C8G A15U	< 1e-05	< 1e-05	< 1e-05	< 1e-05	< 1e-05
C8G A48G C58G	< 1e-05	< 1e-05	< 1e-05	< 1e-05	
C8A A33U G44A A64U	< 1e-05			< 1e-05	
G9A C70U	< 1e-05	2.28e-05 ± 1e-05		< 1e-05	
G7U A12C	< 1e-05	< 1e-05	< 1e-05	< 1e-05	< 1e-05
G9A C10G	< 1e-05		< 1e-05		< 1e-05
C8G U30G	< 1e-05	< 1e-05	< 1e-05	< 1e-05	
C8G U49A U54C G59U C67A	< 1e-05	< 1e-05	< 1e-05	< 1e-05	< 1e-05
C8A U45C	< 1e-05			< 1e-05	< 1e-05
C8A U45A	< 1e-05	< 1e-05	< 1e-05	< 1e-05	< 1e-05
C8A G35C G66A C70G	< 1e-05	< 1e-05			
G7U G35A G40C G43C C58G	< 1e-05				
G7C U57A	< 1e-05		< 1e-05		
C8A G43C C67U	< 1e-05			< 1e-05	< 1e-05
C8A G40A G63A	< 1e-05	< 1e-05			
